# Entries after “also recorded” stand apart in the source; their conditions may differ.
# B1: rat CRP: rat C-reactive protein purified from fresh rat serum to >95% purity (protein)
# chain: HEDMSKQAFVFPGVSATAYVSLEAESKKPLEAFTVCLYAHADVSRSFSIFSYATKTSFNEILLFWTRGQGFSIAVGGPEILFSASEIPEVPTHICATWESATGIVELWLDGKPRVRKSLQKGYIVGTNASIILGQEQDSYGGGFDANQSLVGDIGDVNMWDFVLSPEQINAVYVGRVFSPNVLNWRALKYETHGDVFIKPQLWPLTDCCES
# Assays:
# [1] = system: insulin-stimulated PI3-kinase activity; assay: Insulin-stimulated PI3-kinase activity in 3T3-L1 adipocytes; type: cell-based
# [2] = system: tyrosine phosphorylation of STAT3; assay: Leptin-induced tyrosine phosphorylation of STAT3 in HEK293 cells over-expressing OB-Rb in the presence of CRP (Western blot); type: cell-based, human; conditions: murine/mouse leptin; HEK293 OB-Rb
# Description: To determine if the interaction between CRP and leptin dampens the cellular actions of leptin, the ability of leptin to stimulate tyrosine phosphorylation of STAT3 and PI3-kinase activity was assessed in the presence of CRP in vitro. HEK293 cells over-expressing OB-Rb were serum starved for 2 hours before addition of leptin and CRP (CHEMICON or EMD Biosciences). Leptin, in the presence or absence of CRP, was pre-incubated in μ-MEM (with additional 1 mM Ca^2+) for 30 minutes at 37° C. before being applied to the cells. After a 30-minute incubation with leptin, the cells were harvested in lysis buffer (18). The resultant protein extract was subjected to a Western blot analysis using an anti-phospho-STAT3 specific antibody (Cell Signaling, Beverly, Mass.). For studies involving primary hypothalamic neurons, the hypothalamus from rats was surgically isolated immediately after euthanasia, and placed in the DMEM for incubation with leptin in the presence or absence of CRP.
# mouse leptin = target: T1, mouse leptin (Mus musculus, UniProt P41160); assay: Immuno-precipitation assay of direct binding of rat CRP and mouse leptin; conditions: leptin/CRP mixture and rat serum; Western blot with anti-CRP
# T1 construct: purchased AF Parlow of NHPP, Torrance, CA
# Description: To explore a physical interaction between CRP and leptin, the direct binding of these proteins was determined by an immuno-precipitation assay. Rat CRP was purified from fresh rat serum to >95% purity employing a previously established affinity-purification protocol (20). […] The purified human- and rat-CRP proteins were pre-mixed with recombinant human and mouse leptin, respectively, before addition of antibodies specific for human- and mouse-leptin. The concentrations of CRP and leptin in the precipitation reaction were all within the physiological ranges that have been observed in humans or rats (11 & 15). In parallel experiments, recombinant leptin also was pre-mixed with human- or rat-serum to allow for direct interaction prior to immuno-precipitation. The protein precipitates obtained were subjected to Western blot assays using specific anti-CRP antibodies.
# T1 sequence (P41160 22-167): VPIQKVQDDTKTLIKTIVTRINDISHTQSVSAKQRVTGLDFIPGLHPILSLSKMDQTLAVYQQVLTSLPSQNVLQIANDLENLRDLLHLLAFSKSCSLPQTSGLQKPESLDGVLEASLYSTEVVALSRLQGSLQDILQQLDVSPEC
molecule,measurement,setting,value
B1,effect on insulin-stimulated PI3-kinase activity,[1],did not block
same,effect of CRP on murine leptin-induced tyrosine phosphorylation of STAT3,[2],attenuating effects; also recorded: attenuate
same,co-precipitation of CRP with anti mouse-leptin antibody,mouse leptin,could bring down rat CRP
